Assay results: PMC5931518, “Architecture of the U6 snRNP reveals specific recognition of 3′-end processed U6 snRNA”

T1: Prp24-8Asub (eight RRM4 residues at the Lsm2 interface substituted with alanine) (S. cerevisiae, UniProt P49960 1-444, D361A | S362A | K363A | K367A | L369A | M370A | I371A | N373A)
T1 sequence: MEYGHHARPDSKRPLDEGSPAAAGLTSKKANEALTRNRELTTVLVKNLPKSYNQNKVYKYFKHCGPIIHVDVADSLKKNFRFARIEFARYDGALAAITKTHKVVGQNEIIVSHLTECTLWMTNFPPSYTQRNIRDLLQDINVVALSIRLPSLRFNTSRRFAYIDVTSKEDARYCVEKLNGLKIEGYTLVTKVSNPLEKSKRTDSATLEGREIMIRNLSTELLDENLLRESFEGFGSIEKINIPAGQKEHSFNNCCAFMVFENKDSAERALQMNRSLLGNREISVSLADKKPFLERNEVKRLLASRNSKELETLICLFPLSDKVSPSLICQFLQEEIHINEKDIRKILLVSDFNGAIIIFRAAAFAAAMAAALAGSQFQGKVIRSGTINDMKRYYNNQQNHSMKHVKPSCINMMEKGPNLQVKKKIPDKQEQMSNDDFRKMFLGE

T2: wild-type Prp24 for electrophoretic mobility shift assays (TEV-labile N-terminal polyhistidine tag removed) (S. cerevisiae, UniProt P49960 1-444)
T2 chain: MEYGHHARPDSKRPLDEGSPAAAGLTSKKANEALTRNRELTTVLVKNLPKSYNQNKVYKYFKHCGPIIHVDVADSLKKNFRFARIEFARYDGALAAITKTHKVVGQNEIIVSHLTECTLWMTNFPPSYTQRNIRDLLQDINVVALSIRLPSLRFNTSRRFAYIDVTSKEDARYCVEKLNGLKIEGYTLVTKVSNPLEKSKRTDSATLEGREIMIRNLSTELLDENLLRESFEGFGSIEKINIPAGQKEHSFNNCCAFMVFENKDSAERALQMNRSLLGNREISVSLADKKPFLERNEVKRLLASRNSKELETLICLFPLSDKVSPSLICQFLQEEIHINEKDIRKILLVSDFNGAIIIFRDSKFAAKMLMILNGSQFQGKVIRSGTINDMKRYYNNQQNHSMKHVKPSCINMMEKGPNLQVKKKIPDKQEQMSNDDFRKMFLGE


What was measured:
[1] = target: Prp24 (EMSA, wild type);Lsm2-8 mostly wild type (Saccharomyces cerevisiae;Saccharomyces cerevisiae) (UniProt P38203+P57743+P40070+P40089+Q06406+P53905+P47093); experiment: EMSA; settings: Lsm2-8 titrated onto U6 pre-bound with 20 nM Prp24; FP: 50 mM KCl or as listed 100 mM KCl in both 2x buffers, HEPES (10 mM acid + 10 mM Na salt), 10% glycerol, 1 mM TCEP, tRNA, heparin, BSA, 0.3 nM FAM-RNA …
Prp24 (EMSA, wild type);Lsm2-8 mostly wild type (Saccharomyces cerevisiae;Saccharomyces cerevisiae), sequence (P40070 whole entry, looked up, one chain of several): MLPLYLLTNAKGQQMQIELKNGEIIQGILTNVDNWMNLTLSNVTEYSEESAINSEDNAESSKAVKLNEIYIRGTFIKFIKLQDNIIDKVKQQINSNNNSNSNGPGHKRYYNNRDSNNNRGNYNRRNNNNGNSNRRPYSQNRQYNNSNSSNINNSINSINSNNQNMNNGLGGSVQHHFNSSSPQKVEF

[2] = target: Prp24-8Asub;Lsm2-8 mostly wild type (Saccharomyces cerevisiae;Saccharomyces cerevisiae) (UniProt P38203+P57743+P40070+P40089+Q06406+P53905+P47093); experiment: EMSA; settings: Lsm2-8 titrated onto U6 pre-bound with 20 nM Prp24-8Asub; FP: 50 mM KCl or as listed 100 mM KCl in both 2x buffers, HEPES (10 mM acid + 10 mM Na salt), 10% glycerol, 1 mM TCEP, tRNA, heparin, BSA, 0.3 nM FAM-RNA …
Prp24-8Asub;Lsm2-8 mostly wild type (Saccharomyces cerevisiae;Saccharomyces cerevisiae), sequence (P40070 whole entry, looked up, one chain of several): as above

[3] = target: Prp24-8Asub (eight RRM4 residues at the Lsm2 interface substituted with alanine) (S. cerevisiae) (UniProt P49960); experiment: native gel or EMSA; different amounts of Lsm2–8 added to 0.5 nM Cy3-U6 1–112 pre-incubated 20 min with 20 nM Prp24; 100 mM KCl, bis-tris pH ~6.5, room temperature; 6% native polyacrylamide gel at 4 °C; Hill fit, average of three technical replicates
[4] = target: T1, Prp24-8Asub (eight RRM4 residues at the …); experiment: EMSA; Prp24-8Asub pre-bound to U6 RNA (U6/Prp24 complex)
[5] = target: T2, wild-type Prp24 for electrophoretic …; experiment: EMSA; Prp24 pre-bound to U6 RNA (U6/Prp24 complex)
[6] = target: Prp24-8Asub (eight RRM4 residues at the Lsm2 interface substituted with alanine) (S. cerevisiae) (UniProt P49960)

fold reduction of affinity against wild-type Prp24 (U6•Prp24 complex) [3] [fold]	Kd [4] [nM]	Kd [5] [nM]	rate of in vitro annealing of U4 and U6 with Prp24-8Asub in place of wild-type Prp24 (50 nM Prp24/50 nM Lsm2–8) [6] [fold slower]	Molecule	Kd [1] [nM]	Kd [2] [nM]
				Cy3-U6 1-112	2.8	5.7
2	5.7	2.8	2	Lsm2–8 heteroheptameric ring, "mostly wild type" construct (complex) chain 1: MGSMLFFSFFKTLVDQEVVVELKNDIEIKGTLQSVDQFLNLKLDNISCTDEKKYPHLGSVRNIFIRGSTVRYVYLNKNMVDTNLLQDATRREVMTERK chain 2: MGSMETPLDLLKLNLDERVYIKLRGARTLVGTLQAFDSHCNIVLSDAVETIYQLNNEELSESERRCEMVFIRGDTVTLISTPSEDDDGAVEI chain 3: MGSMLPLYLLTNAKGQQMQIELKNGEIIQGILTNVDNWMNLTLSNVTEYSEESAINSEDNAESSKAVKLNEIYIRGTFIKFIKLQDNIIDKVKQQI chain 4: MGSMSLPEILPLEVIDKTINQKVLIVLQSNREFEGTLVGFDDFVNVILEDAVEWLIDPEDESRNEKVMQHHGRMLLSGNNIAILVPGGKKTPTEAL chain 5: GSMSGKASTEGSVTTEFLSDIIGKTVNVKLASGLLYSGRLESIDGFMNVALSSATEHYESNNNKLLNKFNSDVFLRGTQVMYISEQKI chain 6: MGSMHQQHSKSENKPQQQRKKFEGPKREAILDLAKYKDSKIRVKLMGGKLVIGVLKGYDQLMNLVLDDTVEYMSNPDDENNTELISKNARKLGLTVIRGTILVSLSSAEGSDVLYMQK chain 7: GSMSATLKDYLNKRVVIIKVDGECLIASLNGFDKNTNLFITNVFNRISKEFICKAQLLRGSEIALVGLIDAENDDSLAPIDEKKVPMLKDTKNKIENEHVIWEKVYESKTK		
